According to patent US20150151000A1 (INDIANA UNIVERSITY RESEARCH AND TECHNOLOGY, published 2015):

B1: L1 peptide (CaV2.2[388-402]) (peptide)
peptide: YLEWIFKAEEVMLAE
notes: 15-mer from the first intracellular loop of CaV2.2; It was immobilised as a spot in the SPOTS array and used as a synthetic peptide in MST; also called L1 (CaV2.2); [388-402]; L1
B2: Ct-dis peptide (CaV1.2[2014-2028]) (peptide)
peptide: NSSFPSIHCSSWSEE
notes: also called Ct-Dis (CaV1.2 (L)); [2014-2028]; Ct-dis
B3: L1 (CaV2.1) peptide (peptide)
peptide: YMEWISKAEEVILAE
notes: Immobilised 15-mer spot; also called L1 peptide of P/Q (CaV2.1)-type channel
B4: L1 (CaV2.3) peptide (peptide)
peptide: YRAWIDKAEEVMLAE
notes: Immobilised 15-mer spot; also called L1 peptide of R (CaV2.3)-type channel
B5: L1 (CaV1.2) peptide (peptide)
peptide: YLDWITQAEDIDPEN
notes: Immobilised 15-mer spot; also called L1 peptide of L (CaV1.2)-type channel

The binders below were run against CRMP2 (endogenous, rat brain synaptosomes, rat brain lysates and rat dorsal root ganglia lysates) (rat, UniProt P47942 1-572) (assay: SPOTS peptide array overlaid with rat brain synaptosome fraction, anti-CRMP2 far-Western).

Question: Does B1 bind?
Answer: Result: binds

Question: Does B2 bind?
Answer: Result: binds

Question: Does B3 bind?
Answer: Result: binds

Question: Does B4 bind?
Answer: Result: binds

Question: Does B5 bind?
Answer: Result: binds

Each binder was assayed against T1, CRMP2-His (recombinant collapsin response mediator protein 2, NT647-labeled) (assay: microscale thermophoresis, NT647-labeled CRMP2 constant, peptide titrated 0 to 5 µM, Hill fit).
T1 construct: Purified on Talon resin and labeled with NT647 for microscale thermophoresis; also called recombinant CRMP2; NT647-labeled CRMP2

Question: How did the Kd turn out when B1 was run?
Answer: The Kd was 3120 nM.

Question: With B2 as the binder, how does the Kd read?
Answer: Its Kd is 640 nM.
